We go through five sequences from the supplement of paper PMC5998384.

The subject of data set [1] is HeLa Kyoto. As to the kind of experiment: solubility change mitosis vs G1/S (difference of NP-40 vs SDS log2 ratios) (log2 ratio difference); higher = more soluble in mitosis.
The subject of data set [2] is HeLa Kyoto. Nature of the data set: thermal stability score vs G1/S (z-score of summed log2 fold changes over temperatures); higher = more thermally stable than in G1/S.
Data set [3] deals with HeLa Kyoto. As to the kind of experiment: solubility in G1/S (NP-40 vs SDS abundance) (log2 ratio); higher = more soluble. As to conditions: cell cycle stage: G1/S.
Data set [4] relates to HeLa Kyoto. As to the kind of experiment: melting temperature (median over replicates), in situ; higher = more thermally stable.
Where [5] appears, read: cell cycle stage: early G1 (4.5 h after nocodazole release).
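Throughout, for melting temperature (median over replicates), in situ: HeLa Kyoto cells synchronized by double thymidine or nocodazole block, proteins quantified by TMT10plex mass spectrometry, three independent biological replicates.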
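Throughout, for solubility change mitosis vs G1/S (difference of NP-40 vs SDS log2 ratios): synchronized HeLa Kyoto cells (double thymidine block for G1/S, nocodazole release for mitosis), protein amounts in NP-40 versus SDS lysates quantified by mass spectrometry, three biological replicates.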
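Throughout, for solubility in G1/S (NP-40 vs SDS abundance): HeLa Kyoto cells arrested at G1/S by double thymidine block, proteins quantified by TMT10plex mass spectrometry in mild NP-40 versus SDS extracts, three biological replicates.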
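Throughout, for thermal stability score vs G1/S (z-score of summed log2 fold changes over temperatures): synchronized HeLa Kyoto cells, proteins quantified by TMT10plex mass spectrometry, three biological replicates, mitosis taken 0.5 h after nocodazole release, G1/S directly after double thymidine block.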

“MLGGSLGSRLLRGVGGSHGRFGARGVREGGAAMAAGESMAQRMVWVDLEMTGLDIEKDQIIEMACLITDSDLNILAEGPNLIIKQPDELLDSMSDWCKEHHGKSGLTKAVKESTITLQQAEYEFLSFVRQQTPPGLCPLAGNSVHEDKKFLDKYMPQFMKHLHYRIIDVSTVKELCRRWYPEEYEFAPKKAASHRALDDISESIKELQFYRNNIFKKKIDEKKRKIIENGENEKTVS [REXO2]”: the “solubility change mitosis (log2)” value in data set [1] worked out at 0.144. Moreover, the thermal stability score in data set [2] (setting [5]) is -2.25; in data set [2] (cell cycle stage: mitosis) it was -3.59. Besides, the “solubility in G1/S (log2)” value in data set [3] is 0.239. In addition, the figures for the melting temperature in data set [4] (cell cycle stage: G1/S) and in data set [4] (cell cycle stage: mitosis) were 56.8 °C and 56.5 °C, respectively.
Consider “MLGRSLREVSAALKQGQITPTELCQKCLSLIKKTKFLNAYITVSEEVALKQAEESEKRYKNGQSLGDLDGIPIAVKDNFSTSGIETTCASNMLKGYIPPYNATVVQKLLDQGALLMGKTNLDEFAMGSGSTDGVFGPVKNPWSYSKQYREKRKQNPHSENEDSDWLITGGSSGGSAAAVSAFTCYAALGSDTGGSTRNPAAHCGLVGFKPSYGLVSRHGLIPLVNSMDVPGILTRCVDDAAIVLGALAGPDPRDSTTVHEPINKPFMLPSLADVSKLCIGIPKEYLVPELSSEVQSLWSKAADLFESEGAKVIEVSLPHTSYSIVCYHVLCTSEVASNMARFDGLQYGHRCDIDVSTEAMYAATRREGFNDVVRGRILSGNFFLLKENYENYFVKAQKVRRLIANDFVNAFNSGVDVLLTPTTLSEAVPYLEFIKEDNRTRSAQDDIFTQAVNMAGLPAVSIPVALSNQGLPIGLQFIGRAFCDQQLLTVAKWFEKQVQFPVIQLQELMDDCSAVLENEKLASVSLKQ [QRSL1]”, for which the “solubility change mitosis (log2)” value in data set [1] is -0.131. Further, the thermal stability score in data set [2] (setting [5]) is -0.191; in data set [2] (cell cycle stage: mitosis) it was -0.152. For the same sequence, the “solubility in G1/S (log2)” value in data set [3] was determined as 0.0331. In addition, the values for the melting temperature in data set [4] (cell cycle stage: G1/S) and in data set [4] (cell cycle stage: mitosis) were 50 °C and 50.4 °C, respectively.
For the sequence “MLLLTRSPTAWHRLSQLKPRVLPGTLGGQALHLRSWLLSRQGPAETGGQGQPQGPGLRTRLLITGLFGAGLGGAWLALRAEKERLQQQKRTEALRQAAVGQGDFHLLDHRGRARCKADFRGQWVLMYFGFTHCPDICPDELEKLVQVVRQLEAEPGLPPVQPVFITVDPERDDVEAMARYVQDFHPRLLGLTGSTKQVAQASHSYRVYYNAGPKDEDQDYIVDHSIAIYLLNPDGLFTDYYGRSRSAEQISDSVRRHMAAFRSVLS [SCO2]”, the “solubility change mitosis (log2)” value in data set [1] was -0.127. In addition, the thermal stability score in data set [2] (setting [5]) is 1.37; in data set [2] (cell cycle stage: mitosis) it was 1.52. The “solubility in G1/S (log2)” value in data set [3] came out at 0.334. For the same sequence, the melting temperature came to 50.5 °C in data set [4] (cell cycle stage: G1/S) and 51.5 °C in data set [4] (cell cycle stage: mitosis).
With “MLLSVPLLLGLLGLAVAEPAVYFKEQFLDGDGWTSRWIESKHKSDFGKFVLSSGKFYGDEEKDKGLQTSQDARFYALSASFEPFSNKGQTLVVQFTVKHEQNIDCGGGYVKLFPNSLDQTDMHGDSEYNIMFGPDICGPGTKKVHVIFNYKGKNVLINKDIRCKDDEFTHLYTLIVRPDNTYEVKIDNSQVESGSLEDDWDFLPPKKIKDPDASKPEDWDERAKIDDPTDSKPEDWDKPEHIPDPDAKKPEDWDEEMDGEWEPPVIQNPEYKGEWKPRQIDNPDYKGTWIHPEIDNPEYSPDPSIYAYDNFGVLGLDLWQVKSGTIFDNFLITNDEAYAEEFGNETWGVTKAAEKQMKDKQDEEQRLKEEEEDKKRKEEEEAEDKEDDEDKDEDEEDEEDKEEDEEEDVPGQAKDEL [CALR]”, the “solubility change mitosis (log2)” value in data set [1] was found to be 0.0133. Further, the values for the thermal stability score in data set [2] (setting [5]) and in data set [2] (cell cycle stage: mitosis) were 3.64 and 3.96, respectively. The “solubility in G1/S (log2)” value in data set [3] was 0.0117. The results for the melting temperature in data set [4] (cell cycle stage: G1/S) and in data set [4] (cell cycle stage: mitosis) were 54.6 °C and 54.9 °C, respectively.
For the sequence “MLLWPLLLLLLLLPTLALLRQQRSQDARLSWLAGLQHRVAWGALVWAATWQRRRLEQSTLHVHQSQQQALRWCLQGAQRPHCSLRRSTDISTFRNHLPLTKASQTQQEDSGEQPLPPTSNQDLGEASLQATLLGLAALNKAYPEVLAQGRTARVTLTSPWPRPLPWPGNTLGQVGTPGTKDPRALLLDALRSPGLRALEAGTAVELLDVFLGLETDGEELAGAIAAGNPGAPLRERAAELREALEQGPRGLALRLWPKLQVVVTLDAGGQAEAVAALGALWCQGLAFFSPAYAASGGVLGLNLQPEQPHGLYLLPPGAPFIELLPVKEGTQEEAASTLLLAEAQQGKEYELVLTDRASLTRCRLGDVVRVVGAYNQCPVVRFICRLDQTLSVRGEDIGEDLFSEALGRAVGQWAGAKLLDHGCVESSILDSSAGSAPHYEVFVALRGLRNLSEENRDKLDHCLQEASPRYKSLRFWGSVGPARVHLVGQGAFRALRAALAACPSSPFPPAMPRVLRHRHLAQCLQERVVS [GHDC]”, the “solubility change mitosis (log2)” value in data set [1] was -0.154. Further, the thermal stability score in data set [2] (setting [5]) amounted to 0.585; in data set [2] (cell cycle stage: mitosis), 1.25. The “solubility in G1/S (log2)” value in data set [3] was -0.104. Also, the figures for the melting temperature in data set [4] (cell cycle stage: G1/S) and in data set [4] (cell cycle stage: mitosis) were 53.7 °C and 55.1 °C, respectively.
